Experimental data published in patent US20250243272A1 (GOOD T CELLS, published 2025).

T1: Lrig-1 protein expressed on the surfaces of L cells (human, UniProt Q96JA1 35-1093)
T1 construct: no signal peptide limits are stated; also called L cells that stably express Lrig-1
T1 sequence: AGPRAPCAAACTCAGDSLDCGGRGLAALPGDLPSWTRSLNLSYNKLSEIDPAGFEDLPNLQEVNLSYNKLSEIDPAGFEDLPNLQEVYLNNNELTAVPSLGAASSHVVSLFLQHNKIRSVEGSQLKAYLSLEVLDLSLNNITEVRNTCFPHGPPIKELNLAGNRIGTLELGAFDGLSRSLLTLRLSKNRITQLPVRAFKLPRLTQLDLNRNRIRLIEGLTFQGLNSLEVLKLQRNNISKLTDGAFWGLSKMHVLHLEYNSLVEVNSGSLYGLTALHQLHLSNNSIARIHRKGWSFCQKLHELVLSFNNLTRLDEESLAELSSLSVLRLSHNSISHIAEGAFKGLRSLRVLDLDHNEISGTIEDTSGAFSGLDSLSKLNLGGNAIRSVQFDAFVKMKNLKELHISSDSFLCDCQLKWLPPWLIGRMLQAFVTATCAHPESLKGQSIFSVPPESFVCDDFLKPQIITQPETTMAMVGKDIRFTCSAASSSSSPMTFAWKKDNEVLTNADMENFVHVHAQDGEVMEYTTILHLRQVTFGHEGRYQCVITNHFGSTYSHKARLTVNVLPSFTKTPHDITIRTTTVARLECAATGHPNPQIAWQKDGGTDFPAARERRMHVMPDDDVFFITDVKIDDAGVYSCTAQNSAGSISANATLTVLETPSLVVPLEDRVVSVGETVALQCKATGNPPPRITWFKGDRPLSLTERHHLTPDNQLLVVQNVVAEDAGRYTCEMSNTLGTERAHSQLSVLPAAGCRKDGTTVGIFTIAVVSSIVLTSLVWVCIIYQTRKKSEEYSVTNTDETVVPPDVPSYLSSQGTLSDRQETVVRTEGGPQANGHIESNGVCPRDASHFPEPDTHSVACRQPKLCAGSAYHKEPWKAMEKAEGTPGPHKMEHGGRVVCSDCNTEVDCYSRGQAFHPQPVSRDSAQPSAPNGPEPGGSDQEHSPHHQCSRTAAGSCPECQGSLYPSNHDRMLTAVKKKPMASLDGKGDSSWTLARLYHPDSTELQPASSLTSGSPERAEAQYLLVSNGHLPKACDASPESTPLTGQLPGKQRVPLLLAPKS

B1: GTC210-01 clone (Production Example 1) (antibody, mouse IgG2a, V domains shown)
VH: EVQLLESGGGLVQPGGSLRLSCAASGFTFSGYDMSWVRQAPGKGLEWVSLIYPDSGNKYYADSVKGRFTISRDNSKNTLYLQMNSLRAEDTAVYYCARDAGLSWAGAFDYWGQGTLVTVSS
VL: QSVLTQPPSASGTPGQRVTISCSGSSSNIGSNYVTWYQQLPGTAPKLLIYSDSHRPSGVPDRFSGSKSGTSASLAISGLQSEDEADYYCGSWDYSLSAYVFGGGTKLTVLR
notes: the printed full chains carry mouse constant regions
B2: GTC 210-04 clone (Production Example 4) (antibody, mouse IgG2a, V domains shown)
VH: EVQLLESGGGLVQPGGSLRLSCAASGFTFSNYDMSWVRQAPGKGLEWVSSISPSSGSIYYADSVKGRFTISRDNSKNTLYLQMNSLRAEDTAVYYCAKDLDAFWRPSFDYWGQGTLVTVSS
VL: QSVLTQPPSASGTPGQRVTISCTGSSSNIGNNNVNWYQQLPGTAPKLLIYSDSHRPSGVPDRFSGSKSGTSASLAISGLRSEDEADYYCGSWDDSLSAYVFGGGTKLTVLR
notes: The printed heavy variable region is the same as that of GTC110-01
B3: GTC110-03 clone (Production Example 7) (antibody, mouse IgG2a, V domains shown)
VH: EVQLLESGGGLVQPGGSLRLSCAASGFTFSNYAMSWVRQAPGKGLEWVSAIYPGGGSIYYADSVKGRFTISRDNSKNTLYLQMNSLRAEDTAVYYCARDILPCPWGRCYYDYAMDVWGQGTLVTVSS
VL: QSVLTQPPSASGTPGQRVTISCSDSSSNIGSNTVSWYQQLPGTAPKLLIYADNNRPSGVPDRFSGSKSGTSASLAISGLRSEDEADYYCGTWDYSLSGYVFGGGTKLTVLR
B4: GTC210-03 clone (Production Example 3) (antibody, mouse IgG2a, V domains shown)
VH: EVQLLESGGGLVQPGGSLRLSCAASGFTFSSYDMSWVRQAPGKGLEWVSGISPDGSNIYYADSVKGRFTISRDNSKNTLYLQMNSLRAEDTAVYYCAKVGLRCRYEACSYAYGMDVWGQGTLVTVSS
VL: QSVLTQPPSASGTPGQRVTISCSGSSSNIGSNYVSWYQQLPGTAPKLLIYSDSHRPSGVPDRFSGSKSGTSASLAISGLRSEDEADYYCATWDSSLNGYVFGGGTKLTVLR
B5: GTC210-02 clone (Production Example 2) (antibody, mouse IgG2a, V domains shown)
VH: EVQLLESGGGLVQPGGSLRLSCAASGFTFSNYYMSWVRQAPGKGLEWVSGISPGDSSTYYADSVKGRFTISRDNSKNTLYLQMNSLRAEDTAVYYCAKGLYSNPNEPFDYWGQGTLVTVSS
VL: QSVLTQPPSASGTPGQRVTISCTGSSSNIGSNYVSWYQQLPGTAPKLLIYDDSQRPSGVPDRFSGSKSGTSASLAISGLRSEDEADYYCGTWDYSLNGYVFGGGTKLTVLR
B6: GTC110-04 clone (Production Example 8) (antibody, mouse IgG2a, V domains shown)
VH: EVQLLESGGGLVQPGGSLRLSCAASGFTFSNYAMSWVRQAPGKGLEWVSVISHGGGSTYYADSVKGRFTISRDNSKNTLYLQMNSLRAEDTAVYYCARVISNCHLGVCYYSNGMDVWGQGTLVTVSS
VL: QSVLTQPPSASGTPGQRVTISCSGSSSNIGNNDVYWYQQLPGTAPKLLIYSDSQRPSGVPDRFSGSKSGTSASLAISGLRSEDEADYYCGTWDYSLSGYVFGGGTKLTVLR
notes: also called GTC110-04 antibody; GTTC110-04 antibody
B7: GTC110-02 clone (Production Example 6) (antibody, mouse IgG2a, V domains shown)
VH: EVQLLESGGGLVQPGGSLRLSCAASGFTFSDYYMSWVRQAPGKGLEWVSGISHDSGSKYYADSVKGRFTISRDNSKNTLYLQMNSLRAEDTAVYYCARHWTTFDYWGQGTLVTVSS
VL: QSVLTQPPSASGTPGQRVTISCSGSSSNIGSNNVTWYQQLPGTAPKLLIYANSNRPSGVPDRFSGSKSGTSASLAISGLRSEDEADYYCGAWDYSLSAYVFGGGTKLTVLR

The binders below were run against T1, Lrig-1 protein expressed on the … (assay: FACS on L cells stably expressing Lrig-1, eFlour 670-conjugated anti-mouse secondary antibody).
Procedure: In order to examine whether the monoclonal antibodies according to the present invention, produced in Production Examples 1 to 8, well recognize Lrig-1, each of the antibodies of Production Examples 1 to 8 was bound to L cells that stably express Lrig-1, and then an eFlour 670-conjugated secondary antibody capable of recognizing mouse antibodies was added thereto. Next, the binding affinities of the monoclonal antibodies for the Lrig-1 protein were analyzed using FACS.

Binding result, binds:
B1
B2
B3
B4
B5
B6
B7
